Positions count from the first letter of the chain named.
T1: FcγRIIb expressed on HEK cells (UniProt P31994 43-310, limits assumed)
T1 construct: whole, on cells; also called HEK293T-FcγRIIb
T1 sequence (looked up): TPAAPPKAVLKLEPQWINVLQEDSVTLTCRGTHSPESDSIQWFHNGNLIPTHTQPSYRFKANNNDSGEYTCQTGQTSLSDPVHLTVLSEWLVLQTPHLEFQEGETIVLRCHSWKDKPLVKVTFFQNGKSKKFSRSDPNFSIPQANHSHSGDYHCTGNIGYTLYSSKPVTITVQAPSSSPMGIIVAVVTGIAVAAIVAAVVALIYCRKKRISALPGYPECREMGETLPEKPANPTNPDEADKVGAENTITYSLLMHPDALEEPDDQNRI

T2: FcγRIIa extracellular domain with H131, histag (Biorbyt, batch ORB138408) (human, UniProt P12318 34-217)
T2 construct: Bought protein; also called FcγRIIa H131; not shown: histag
T2 sequence: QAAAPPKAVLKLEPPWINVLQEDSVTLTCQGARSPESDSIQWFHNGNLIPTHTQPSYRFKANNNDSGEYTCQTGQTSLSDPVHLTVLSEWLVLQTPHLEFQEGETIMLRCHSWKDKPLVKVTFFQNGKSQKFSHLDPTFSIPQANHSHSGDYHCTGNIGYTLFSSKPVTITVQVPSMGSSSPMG

T3: FcγRIIa 131H expressed on HEK cells (human, UniProt P12318 34-317)
T3 sequence: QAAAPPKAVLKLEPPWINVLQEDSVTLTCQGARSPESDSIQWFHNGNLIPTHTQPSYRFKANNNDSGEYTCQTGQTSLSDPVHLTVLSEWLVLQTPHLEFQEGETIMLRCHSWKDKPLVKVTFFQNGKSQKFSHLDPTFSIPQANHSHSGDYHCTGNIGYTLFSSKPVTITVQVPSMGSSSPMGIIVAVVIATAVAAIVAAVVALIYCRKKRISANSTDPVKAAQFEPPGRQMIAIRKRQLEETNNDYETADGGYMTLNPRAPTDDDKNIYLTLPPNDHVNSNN

B1: mAb 5 (antibody, human IgG1, kappa, V domains shown)
VH: QVQLVQSGAEVAKPGASVKVSCKASGYTFTDYWMQWVRQAPGQGLEWIGTIYPGDGDTSYAQKFQGRVTMTADTSTSTVYMELSSLRSEDTAVYYCARGDYYGSNSLDYWGQGTLVTVSS
VL: DIVMTQSPDSLAVSLGERATINCKSSQDVSTVLAWYQQKPGQSPRRLIYSASYRYIGVPDRFSGSGSGTDFTLTISSLQAEDVAVYYCQQHYSPPYTFGGGTKLEIKR
notes: Humanized heavy and light chains with engineered Fc; also called anti-CD38 mAb 5; HEAVY CHAIN 5 / LIGHT CHAIN 2
B2: mAb 8 (antibody, human IgG1, kappa, V domains shown)
VH: B1 VH with R38K, A40R, S59G, T74K
VL: B1 VL with L33V, L73F
notes: Humanized heavy and light chains with engineered Fc; also called anti-CD38 mAb 8; HEAVY CHAIN 6 / LIGHT CHAIN 3
B3: mAb 7 (antibody, human IgG1, kappa, V domains shown)
VH: B1 VH with R38K, A40R, S59G, T74K
VL: B1 VL
notes: Humanized heavy and light chains with engineered Fc; also called anti-CD38 mAb 7; HEAVY CHAIN 6 / LIGHT CHAIN 2
B4: mAb 6 (antibody, human IgG1, kappa, V domains shown)
VH: B1 VH
VL: B1 VL with L33V, L73F
notes: Humanized heavy and light chains with engineered Fc; also called anti-CD38 mAb 6; HEAVY CHAIN 5 / LIGHT CHAIN 3
B5: mAb 1 (antibody, human IgG1, kappa)
heavy: not shown
light: DIVMTQSHLSMSTSLGDPVSITCKASQDVSTVVAWYQQKPGQSPRRLIYSASYRYIGVPDRFTGSGAGTDFTFTISSVQAEDLAVYYCQQHYSPPYTFGGGTKLEIKRTVAAPSVFIFPPSDEQLKSGTASVVCLLNNFYPREAKVQWKVDNALQSGNSQESVTEQDSKDSTYSLSSTLTLSKADYEKHKVYACEVTHQGLSSPVTKSFNRGEC
notes: also called HEAVY CHAIN 1 / LIGHT CHAIN 1
B6: mAb 3 (antibody, human IgG1, kappa)
heavy: QVQLVQSGAEVAKPGTSVKLSCKASGYTFTDYWMQWVKQRPGQGLEWIGTIYPGDGDTGYAQKFQGKATLTADKSSKTVYMHLSSLASEDSAVYYCARGDYYGSNSLDYWGQGTSVTVSSASTKGPSVFPLAPSSKSTSGGTAALGCLVKDYFPEPVTVSWNSGALTSGVHTFPAVLQSSGLYSLSSVVTVPSSSLGTQTYICNVNHKPSNTKVDKKVEPKSCDKTHTCPPCPAPELLAGPDVFLFPPKPKDTLMISRTPEVTCVVVDVSHEDPEVKFNWYVDGVEVHNAKTKPREEQYNSTYRVVSVLTVLHQDWLNGKEYKCKVSNKALPAPEEKTISKAKGQPREPQVYTLPPSRDELTKNQVSLTCLVKGFYPSDIAVEWESNGQPENNYKTTPPVLDSDGSFFLYSKLTVDKSRWQQGNVFSCSVMHEALHNHYTQKSLSLSPG
light: B5 light
notes: also called HEAVY CHAIN 3 / LIGHT CHAIN 1
B7: mAb 4 (antibody, human IgG1, kappa)
heavy: B6 heavy with A333L
light: B5 light
notes: also called HEAVY CHAIN 4 / LIGHT CHAIN 1
B8: mAb 2 (antibody, human IgG1, kappa)
heavy: not shown
light: B5 light
notes: also called HEAVY CHAIN 2 / LIGHT CHAIN 1

These binders were tested against T4, human CD38 (human, UniProt P28907 43-300, limits assumed) (assay: SPR (Biacore), mAb captured on anti-Fc chip, after thermal stress of the mAb (14 days at 40 C); n = 3).
T4 construct: Soluble analyte in SPR; the construct (limits, tags) is not described; also called huCD38

Binder | Kd | koff | kon
B1 | 0.828 nM | 0.00236 s⁻¹ | 2.95e+06 M⁻¹ s⁻¹
B2 | 0.198 nM | 0.000663 s⁻¹ | 3.53e+06 M⁻¹ s⁻¹
B3 | 0.394 nM | 0.00133 s⁻¹ | 3.39e+06 M⁻¹ s⁻¹
B4 | 0.346 nM | 0.00128 s⁻¹ | 3.86e+06 M⁻¹ s⁻¹

The binders below were run against T5, FcγRIIIa (CD16a) extracellular domain with V158, C-terminal histag (human, UniProt P08637 17-208) (assay: SPR (BIAcore 2000), FcγRIIIa-histag captured on anti-His IgG, mAb 8-256 nM, two-state fit).
T5 construct: also called FcγRIIIa 158V; FcγRIIIa-histag; not shown: C-terminal histag

Binder | Kd
B5 | 425 nM
B6 | 50 nM
B7 | 47 nM
B8 | 47 nM

What follows are binders tested against T6, FcγRI expressed on HEK cells (UniProt P12314 16-374, limits assumed) (assay: flow cytometry on HEK293T cells expressing the receptor).
T6 construct: whole, on cells; also called HEK293T-FcγRI

Binder | difference in affinity versus mAb 1
B5 | 1 fold
B6 | 1.6 fold
B7 | 1.5 fold
B8 | 1.8 fold

Each binder was assayed against T1, FcγRIIb expressed on HEK cells in the same assay as above.

Binder | difference in affinity versus mAb 1
B5 | 1 fold

Each binder was assayed against T6, FcγRI expressed on HEK cells (assay: flow cytometry on HEK293T cells expressing the receptor, FITC anti-human IgG; mean Kd).

Binder | Kd
B5 | 24.2 nM
B6 | 14.7 nM
B7 | 15.9 nM
B8 | 13.5 nM

What follows are binders tested against T1, FcγRIIb expressed on HEK cells in the same assay as above.

Binder | Kd
B5 | 1300 nM
B6 | 222 nM
B7 | 544 nM

Each binder was assayed against T7, FcγRIIIa 158V expressed on cells (human, UniProt P08637 17-254) (assay: cell-based or functional assay).

Binder | ADCC of RPMI-8226 cells, EC50 (calcein release)
B5 | 2.45 ng/mL
B6 | 0.09 ng/mL
B7 | 0.09 ng/mL
B8 | 0.09 ng/mL

What follows are binders tested against T5, FcγRIIIa (CD16a) extracellular domain … (assay: SPR, another experiment).

Binder | Kd
B6 | 75 nM

Each binder was assayed against T2, FcγRIIa extracellular domain with H131, … (assay: AlphaScreen competition (relative IC50): untagged mAb displaces biotinylated anti-CD38 native IgG1 from FcγRIIa-histag).

Binder | IC50
B5 | 268 nM
B6 | 15 nM
B7 | 58 nM
B8 | 119 nM

What follows are binders tested against T1, FcγRIIb expressed on HEK cells (assay: flow cytometry on HEK293T cells expressing the receptor; the text calls it fold lower affinity).

Binder | difference in affinity versus mAb 1
B6 | 3.3 fold
B7 | 1.8 fold
B8 | 3.9 fold

What follows are binders tested against T5, FcγRIIIa (CD16a) extracellular domain … (assay: SPR, against mAb 1).

Binder | fold higher affinity than mAb 1
B6 | 9 fold
B7 | 9 fold
B8 | 9 fold

Biological target: T7, FcγRIIIa 158V expressed on cells
Assay: cell-based or functional assay
Remark: another data set of the same source

Binder | ADCC of MOLP-8 cells, EC50 (calcein release)
B5 | 3.3 ng/mL
B6 | 0.14 ng/mL
B7 | 0.12 ng/mL
B8 | 0.1 ng/mL

What follows are binders tested against T3, FcγRIIa 131H expressed on HEK cells (assay: flow cytometry on HEK293T cells expressing the receptor).

Binder | difference in affinity versus mAb 1
B5 | 1 fold
B6 | 5.3 fold
B7 | 2.2 fold
B8 | 1.4 fold

Biological target: T7, FcγRIIIa 158V expressed on cells
Assay: cell-based or functional assay
Remark: another data set of the same source

Binder | ADCC of KMS-12BM cells, EC50 (calcein release)
B5 | 41 ng/mL
B6 | 0.6 ng/mL
B7 | 0.45 ng/mL
B8 | 0.65 ng/mL

Each binder was assayed against T7, FcγRIIIa 158V expressed on cells (assay: flow cytometry on HEK293T cells expressing the receptor).

Binder | Fold difference in affinity versus mAb 1
B5 | 1 fold
B6 | 5.2 fold
B7 | 5.9 fold
B8 | 9.4 fold

The binders below were run against T7, FcγRIIIa 158V expressed on cells (assay: flow cytometry on HEK293T cells expressing the receptor, FITC anti-human IgG; mean apparent Kd).

Binder | Kd
B5 | 165 nM
B6 | 32 nM
B7 | 28.1 nM
B8 | 17.6 nM

What follows are binders tested against T3, FcγRIIa 131H expressed on HEK cells (assay: flow cytometry on HEK293T cells expressing the receptor, FITC anti-human IgG; mean Kd).

Binder | Kd
B5 | 1180 nM
B6 | 222 nM
B7 | 544 nM
B8 | 840 nM

These binders were tested against T4, human CD38 (assay: SPR (Biacore), mAb captured on anti-Fc CM5 chip, huCD38 injected; n = 3).

Binder | Kd | koff | kon
B1 | 0.699 nM | 0.00188 s⁻¹ | 2.78e+06 M⁻¹ s⁻¹
B2 | 0.191 nM | 0.00065 s⁻¹ | 3.51e+06 M⁻¹ s⁻¹
B3 | 0.415 nM | 0.0013 s⁻¹ | 3.18e+06 M⁻¹ s⁻¹
B4 | 0.385 nM | ~0.00119 s⁻¹ | 3.1e+06 M⁻¹ s⁻¹

What follows are binders tested against T2, FcγRIIa extracellular domain with H131, … (assay: AlphaScreen competition, against mAb 1).

Binder | fold higher affinity compared to mAb 1
B6 | > 18 fold

Source: patent publication US20200399391A1 (Sanofi, published 2020)
